Experimental data as given in US8216581 (University of Pennsylvania, dated 2012).

Columns and labels:
[1] = biological target: T1, GPIIb/IIIa on intact human platelets (human, UniProt P08514 32-1039; P05106 27-788); test: immunoprecipitation from biotinylated platelets; agrees with ELISA and Glanzmann platelet flow cytometry;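 further: precipitated biotin-labelled platelet membrane proteins visualized with biotinylated horseradish peroxidase-avidin complexes, scored for polypeptides behaving like GPIIb/IIIa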
T1 construct: whole, on cells; also called platelet GPIIb/IIIa; αIIbβ3
Excerpt: Precipitated, biotinylated platelet membrane proteins were detected with biotinylated horseradish peroxidase-avidin complexes (ABC Staining Kit, Pierce).

[2] = biological target: T2, GPIa/IIa on a stable K562 cell line (UniProt P17301 30-1181; P05556 21-798, limits assumed); test: flow cytometry on K562 cells expressing GPIa/IIa
T2 construct: whole, on cells; also called K562 cell line expressing GPIa/IIa

Row | binding result [1] | binding result [2] | Binder
1 | no binding | no binding | H48L24 (Fab, V domains shown, Soluble Fab, clone A) VH: QVQLVESGGGVVQPGRSLRLSCAASGFTISNYHIHWVRQAPGKGLEWVAFISYDGSNKYYADSVKGRFTISRDNSKNTLFLQMNSLTTEDTAVYYCAIVGPFDYRGQGTLVTVSS VL: DIQLTQSPTFLSASVGDRVTITCRASQGISRYLAWYQQKPGKAPKLLIYAASTLQSGVPSRFSGSGSGTDFTLTFSSLQPEDFATYYCQQLNSYPFTFGGGTTVEIK
2 | no binding | no binding | H40L36 (Fab, V domains shown, Soluble Fab) VH: QVQLVESGGGVVQPGRSLRLSCAASTFTFSNYAMHWVRQAPGKGLEWVAVISYDGSNKYYADSVKGRFTISRDNSKNTLYLQMNSLRPEDTAVYYCARGGVAAFDYWGQGTLVTVSS VL: not shown
3 | no binding | no binding | H38L49 (Fab, V domains shown, Soluble Fab) VH: QVQLVESGGGVVQPGRSLRLSCAASGFTFSNYAMHWVRQAPGKGLEWVAVISYDGSNKYYADSVKGRFTISRDNSKNTLYLQMNSLRPEDTAVYYCARGGVGAFDYWGQGTLVTVSS VL: not shown
4 | no binding | no binding | H37L40 (Fab, V domains shown, Soluble Fab) VH: QVQLVESGGGVVQPGRSLRLSCAASGFTFSNYAMHWVRQAPGKGLEWVAVISYDGSNKYYADSVKGRFTISRDNSKNTLYLQMNSLRPEDTAVYYCARGGVAAFDYWGQGTLVTVSS VL: DIVMTQSPLSLSVSPGEPASISCRSSQSLLDSNGHNFLDWYLQKPGQSPQLLIFVGSYRALGVPDRFTGSGTGTDFTLKISRVEPEDVGVYYCMQGLQAPITFGQGTKLDIK
5 | no binding | no binding | H38L55 (Fab, V domains shown, Soluble Fab) VH: QVQLVESGGGVVQPGRSLRLSCAASGFTFSNYAMHWVRQAPGKGLEWVAVISYDGSNKYYADSVKGRFTISRDNSKNTLYLQMNSLRPEDTAVYYCARGGVGAFDYWGQGTLVTVSS VL: DIVMTQSPLSLPVTPGEPASISCRSNQSVLHSNGRHYLDWYLQKPGQSPQLLIYMVFNRASGVPDRFSGSGSGTDFTLKISRVESEDVGVYYCMQAQQTPVTFGQGTRLDIK
6 | no binding | no binding | H37L50 (Fab, V domains shown, Soluble Fab, clone B) VH: QVQLVESGGGVVQPGRSLRLSCAASGFTFSNYAMHWVRQAPGKGLEWVAVISYDGSNKYYADSVKGRFTISRDNSKNTLYLQMNSLRPEDTAVYYCARGGVAAFDYWGQGTLVTVSS VL: not shown
7 | no binding | no binding | H37L47 (Fab, V domains shown, Soluble Fab) VH: QVQLVESGGGVVQPGRSLRLSCAASGFTFSNYAMHWVRQAPGKGLEWVAVISYDGSNKYYADSVKGRFTISRDNSKNTLYLQMNSLRPEDTAVYYCARGGVAAFDYWGQGTLVTVSS VL: not shown
8 | no binding | no binding | H37L41 (Fab, V domains shown, Soluble Fab) VH: QVQLVESGGGVVQPGRSLRLSCAASGFTFSNYAMHWVRQAPGKGLEWVAVISYDGSNKYYADSVKGRFTISRDNSKNTLYLQMNSLRPEDTAVYYCARGGVAAFDYWGQGTLVTVSS VL: not shown
9 | no binding | no binding | H38L54 (Fab, V domains shown, Soluble Fab) VH: QVQLVESGGGVVQPGRSLRLSCAASGFTFSNYAMHWVRQAPGKGLEWVAVISYDGSNKYYADSVKGRFTISRDNSKNTLYLQMNSLRPEDTAVYYCARGGVGAFDYWGQGTLVTVSS VL: not shown
10 | no binding | no binding | H37L45 (Fab, V domains shown, Soluble Fab) VH: QVQLVESGGGVVQPGRSLRLSCAASGFTFSNYAMHWVRQAPGKGLEWVAVISYDGSNKYYADSVKGRFTISRDNSKNTLYLQMNSLRPEDTAVYYCARGGVAAFDYWGQGTLVTVSS VL: DIVMTQSPVSLAVTPGEPASISCRSSQSLLHSNGYNYLDWYLQKPGQSPQLLIYLGSTRASGVPDRFSGSGSGTDFTLKINRVEAEDVGVYYCMQALQSPFTFGGGTKVQIK
11 | no binding | no binding | H37L48 (Fab, V domains shown, Soluble Fab) VH: QVQLVESGGGVVQPGRSLRLSCAASGFTFSNYAMHWVRQAPGKGLEWVAVISYDGSNKYYADSVKGRFTISRDNSKNTLYLQMNSLRPEDTAVYYCARGGVAAFDYWGQGTLVTVSS VL: not shown
12 | no binding | no binding | H42L38 (Fab, V domains shown, Soluble Fab) VH: QVQLVESGGAMVQPGRSLRLSCAASGFPFSNYAMHWVRQAPGKGLEWVAVISYDGSNKYYADSVKGRFTISRDNSKNTLYLQMNSLRPEDTAVYYCARGGVAAFDYWGQGTLVTVSS VL: not shown
13 | no binding | no binding | H36L35 (Fab, V domains shown, Soluble Fab) VH: QVQLVESGGGVVQPGRSLRLSCAASGFTFSSYAMHWVRQAPGKGLEWVAVISYDGSNKYYADSVKGRFTISRDNSKNTLYLQMNSLRPEDTAVYYCARGGVAAFDYWGQGTLVTVSS VL: not shown
14 | no binding | no binding | H40L53 (Fab, V domains shown, Soluble Fab) VH: QVQLVESGGGVVQPGRSLRLSCAASTFTFSNYAMHWVRQAPGKGLEWVAVISYDGSNKYYADSVKGRFTISRDNSKNTLYLQMNSLRPEDTAVYYCARGGVAAFDYWGQGTLVTVSS VL: not shown
15 | no binding | no binding | H41L51 (Fab, V domains shown, Soluble Fab) VH: QVQLVESGGGVVQPGRSLRLSCAASGSTFSYYAMHWVRQAPGKGLEWVAVISYDGSNKYYADSVKGRFTISRDNSKNTLYLQMNSLRPEDTAVYYCARGGVAAFDYWGQGTLVTVSS VL: not shown
16 | no binding | no binding | H37L44 (Fab, V domains shown, Soluble Fab) VH: QVQLVESGGGVVQPGRSLRLSCAASGFTFSNYAMHWVRQAPGKGLEWVAVISYDGSNKYYADSVKGRFTISRDNSKNTLYLQMNSLRPEDTAVYYCARGGVAAFDYWGQGTLVTVSS VL: DIVMTQSPVSLAVTPGEPASISCRSSQSLLHSNGYNYLDWYLQKPGQSPQLLIYLGSTRASGVPDRFSGSGSGTDFTLKINRVEAEDVGVYYCMQALQSPFTFGGGTKVEIK
17 | no binding | no binding | H40L42 (Fab, V domains shown, Soluble Fab) VH: QVQLVESGGGVVQPGRSLRLSCAASTFTFSNYAMHWVRQAPGKGLEWVAVISYDGSNKYYADSVKGRFTISRDNSKNTLYLQMNSLRPEDTAVYYCARGGVAAFDYWGQGTLVTVSS VL: not shown
18 | no binding | no binding | H40L52 (Fab, V domains shown, Soluble Fab) VH: QVQLVESGGGVVQPGRSLRLSCAASTFTFSNYAMHWVRQAPGKGLEWVAVISYDGSNKYYADSVKGRFTISRDNSKNTLYLQMNSLRPEDTAVYYCARGGVAAFDYWGQGTLVTVSS VL: not shown
19 | no binding | no binding | H38L39 (Fab, V domains shown, Soluble Fab) VH: QVQLVESGGGVVQPGRSLRLSCAASGFTFSNYAMHWVRQAPGKGLEWVAVISYDGSNKYYADSVKGRFTISRDNSKNTLYLQMNSLRPEDTAVYYCARGGVGAFDYWGQGTLVTVSS VL: DIVMTQSPPSLPVTPGEPASISCRSSQSLLHTNGYNYLDWYLQKPGQSPQLLIYLGSNRASGVPDRFSGSGSGTDFTLTISRVEAEDVGVFYCMQALEPPYTFGQGTKLEIK
20 | no binding | no binding | H83L34 (Fab, V domains shown, Soluble Fab) VH: QVQLQESGPGLVKPSETLSLTCTVSGGSISSYYWSWIRQPPGKGLEYIGYIYYSGSTDYNPSLKSRVTISVDTSENQFSLKLSSVTAADTAVYYCARSPPVIRPAMDVWGQGTTVTVSS VL: not shown
21 | no binding | no binding | H39L43 (Fab, V domains shown, Soluble Fab) VH: QVQLVESGGGVVQPGRSLRLSCAASGFTFSNYAMHWVRQAPGKGLEWVAVISYDGSNKYYADSVKGRFTISRDNSKNTLYLQMNSLRPEDTAVYYCARGGVAAFDYWGQGTLVTV VL: not shown
22 | no binding | no binding | H39L37 (Fab, V domains shown, Soluble Fab) VH: QVQLVESGGGVVQPGRSLRLSCAASGFTFSNYAMHWVRQAPGKGLEWVAVISYDGSNKYYADSVKGRFTISRDNSKNTLYLQMNSLRPEDTAVYYCARGGVAAFDYWGQGTLVTV VL: not shown
23 | no binding | no binding | H39L46 (Fab, V domains shown, Soluble Fab) VH: QVQLVESGGGVVQPGRSLRLSCAASGFTFSNYAMHWVRQAPGKGLEWVAVISYDGSNKYYADSVKGRFTISRDNSKNTLYLQMNSLRPEDTAVYYCARGGVAAFDYWGQGTLVTV VL: DIVMTQSPLSLPVTPGEPASISCRSSQSLLHSNGNNYLDWYLQKPGQSPQLLIYLASNRASGVPDRFSGSGSGTDFTLKISRVEPEDVGLYYCMQALQTPLTFGGGSKVEIK
24 | no binding | no binding | H39L44 (Fab, V domains shown, Soluble Fab) VH: QVQLVESGGGVVQPGRSLRLSCAASGFTFSNYAMHWVRQAPGKGLEWVAVISYDGSNKYYADSVKGRFTISRDNSKNTLYLQMNSLRPEDTAVYYCARGGVAAFDYWGQGTLVTV VL: DIVMTQSPVSLAVTPGEPASISCRSSQSLLHSNGYNYLDWYLQKPGQSPQLLIYLGSTRASGVPDRFSGSGSGTDFTLKINRVEAEDVGVYYCMQALQSPFTFGGGTKVEIK
25 | no binding | no binding | H46L16 (Fab, V domains shown, Soluble Fab, ITP patient A, clone A) VH: QVQLVESGGGVVQPGRSLRLSCAASGFTFSNFNMHWVRQAPGKGLEWVALISYDGSNKNYADSVKGRFTISRDNSKNTLFLQMNSLRAEDTAVYYCMVVGAFDYWGQGTLVTVSS VL: DIQMTQSPSSLSASVGDRVTITCRASQGISSYLAWYQQKPGKVPKLLIYAASTLQSGVPSRFSGSGSGTDFTLTISSLQPEDVATYYCQKYNSAPLTFGGGTKVEIK
